Literature values, collected in article PMC6628625.
Like-named read-outs stand apart in the source and are kept apart here.

Key:
[1] = molecular target: calmodulin (Homo sapiens) (UniProt P0DP23)
[2] = molecular target: calmodulin (Homo sapiens) (UniProt P0DP23); remark: listed apart in the source

For “AC (adenylate cyclase toxin) (from UniProt P0DKX7)”, the Kd [1] is listed as 0.2 nM.

For EF (edema factor) (from UniProt P40136), the Kd [2] is given as 20 nM.
